According to patent publication US20070105796A1 (published 2007):

Molecular target: T1, TERT (telomerase reverse transcriptase), catalytic subunit of telomerase (human, UniProt O14746 1-1132)
T1 construct: also called human TERT
Assay: co-expression in HEK293T cells, immunoprecipitation with anti-HA antibody, Western blotting with anti-TERT antibody (FIG. 3)
Experimental: After culturing 4×10⁵ HEK293T cells at 37° C. overnight under the atomosphere of 5% CO₂ (in a dish with 60 mm diameter), 2 μg of the expression plasmid of HA-tagged MAPKAPK3 or pcDNA3.1 (+) as a negative control was transfected together with 2 μg of TERT expression plasmid using FuGENE6 Transfection Reagent (Roche). After 2 days of culturing, cells were washed with ice-cold phosphate buffered physiologically saline (PBS (−)), collected and suspended in 500 μl of cell lysis buffer (20 mM Tris-HCl, pH7.4/150 mM NaCl/1 mM ethylenediaminetetraacetic acid (EDTA)/2.5 mM sodium pyrophsphate)/1 mM β-glycerophsphate/1 mM Na₃VO₄/protease inhibitor cocktail), and left to stand on ice for 10 minutes. Subsequently, centrifugation was conducted at 4° C. for 10 minutes at 14,000 rpm to collect the supernatant for use as a cell lysate. Then, 10 μl of agarose-conjugated normal rabbit IgG (Sigma) was added to 500 μl of the cell lysate and subjected to overturned mixing at 4° C. for 30 minutes, followed by subjecting to centrifugation to collect the supernatant. 10 μl of agarose-conjugated anti-HA antibody (Y11, SantaCruz) was added to the collected supernatant, and subjected to overturned mixing at 4° C. overnight, followed by subjecting to centrifugation to collect the agarose beads. […] Subsequently, the binding protein was detected by Western blotting using an anti-TERT antibody (L-20, SantaCruz). […]

T1 sequence (O14746 whole entry): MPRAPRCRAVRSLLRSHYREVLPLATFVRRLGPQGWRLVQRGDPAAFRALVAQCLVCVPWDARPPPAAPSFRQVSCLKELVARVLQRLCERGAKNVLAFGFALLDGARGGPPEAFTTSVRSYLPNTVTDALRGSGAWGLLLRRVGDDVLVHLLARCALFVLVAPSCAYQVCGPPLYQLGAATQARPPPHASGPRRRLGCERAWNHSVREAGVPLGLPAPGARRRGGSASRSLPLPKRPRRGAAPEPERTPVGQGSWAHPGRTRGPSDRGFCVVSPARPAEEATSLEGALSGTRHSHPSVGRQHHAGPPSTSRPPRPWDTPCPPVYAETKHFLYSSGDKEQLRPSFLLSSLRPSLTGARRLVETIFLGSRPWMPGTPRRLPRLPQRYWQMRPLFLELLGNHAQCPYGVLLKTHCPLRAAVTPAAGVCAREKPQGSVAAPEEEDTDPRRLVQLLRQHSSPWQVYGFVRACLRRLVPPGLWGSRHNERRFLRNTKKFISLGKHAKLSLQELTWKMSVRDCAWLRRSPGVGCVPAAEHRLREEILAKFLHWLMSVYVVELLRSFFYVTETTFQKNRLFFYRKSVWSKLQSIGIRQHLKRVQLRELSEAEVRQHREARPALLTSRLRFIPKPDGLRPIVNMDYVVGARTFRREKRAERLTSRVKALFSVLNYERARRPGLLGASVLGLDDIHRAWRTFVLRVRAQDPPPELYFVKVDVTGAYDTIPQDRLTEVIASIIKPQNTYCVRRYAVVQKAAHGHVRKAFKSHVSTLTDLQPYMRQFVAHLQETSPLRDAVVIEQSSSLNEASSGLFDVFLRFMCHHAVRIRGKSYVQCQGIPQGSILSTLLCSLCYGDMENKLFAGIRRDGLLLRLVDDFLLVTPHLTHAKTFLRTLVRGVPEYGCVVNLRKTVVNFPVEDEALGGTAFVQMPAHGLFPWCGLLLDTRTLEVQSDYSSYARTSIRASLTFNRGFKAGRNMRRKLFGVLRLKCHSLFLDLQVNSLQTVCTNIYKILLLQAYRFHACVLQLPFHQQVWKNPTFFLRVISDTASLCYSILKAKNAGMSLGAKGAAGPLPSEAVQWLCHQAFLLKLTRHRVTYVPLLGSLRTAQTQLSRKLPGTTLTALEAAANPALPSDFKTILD

- binding result: binds
B1: N-terminal HA-tagged MAPKAPK3 (enzyme)
chain: MDGETAEEQGGPVPPPVAPGGPGLGGAPGGRREPKKYAVTDDYQLSKQVLGLGVNGKVLECFHRRTGQKCALKLLYDSPKARQEVDHHWQASGGPHIVCILDVYENMHHGKRCLLIIMECMEGGELFSRIQERGDQAFTEREAAEIMRDIGTAIQFLHSHNIAHRDVKPENLLYTSKEKDAVLKLTDFGFAKETTQNALQTPCYTPYYVAPEVLGPEKYDKSCDMWSLGVIMYILLCGFPPFYSNTGQAISPGMKRRIRLGQYGFPNPEWSEVSEDAKQLIRLLLKTDPTERLTITQFMNHPWINQSMVVPQTPLHTARVLQEDKDHWDEVKEEMTSALATMRVDYDQVKIKDLKTSNNRLLNKRRKKQAGSSSASQGCNNQ
notes: Expressed in HEK293T cells from pcDNA3.1(+); also called HA-MAPKAPK3; not shown: HA-tag at the N-terminus
